From patent US20260234247A1 (published 2026)
One block for each binder: values may come before it.

Assays:
human LILRB1 = target: T1, human LILRB1 (human, UniProt Q8NHL6 24-458, limits assumed); test: Octet off-rate ranking;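 further: antibody dissociation rate constants against cynomolgus LILRB2 plus human LILRB1, LILRB2, LILRA1 and LILRA2, measured on an Octet instrument to rank binding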
T1 construct: also called hLILRB1
Description: (§1) Binding affinity of anti-LILRB1 and anti-LILRB2 antibodies against human LILRB1, LILRB2, LILRA1, LILRA2 and cynomolgus LILRB2 was ranked by measuring dissociation rate constant (Kdis) using the Octet system.

human LILRA1 [1] = target: T2, human LILRA1 (human, UniProt O75019 17-461, limits assumed); test: Octet off-rate ranking;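 further: antibody dissociation rate constants against cynomolgus LILRB2 plus human LILRB1, LILRB2, LILRA1 and LILRA2, measured on an Octet instrument to rank binding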
T2 construct: also called hLILRA1
T2 sequence (O75019 17-461 limits assumed): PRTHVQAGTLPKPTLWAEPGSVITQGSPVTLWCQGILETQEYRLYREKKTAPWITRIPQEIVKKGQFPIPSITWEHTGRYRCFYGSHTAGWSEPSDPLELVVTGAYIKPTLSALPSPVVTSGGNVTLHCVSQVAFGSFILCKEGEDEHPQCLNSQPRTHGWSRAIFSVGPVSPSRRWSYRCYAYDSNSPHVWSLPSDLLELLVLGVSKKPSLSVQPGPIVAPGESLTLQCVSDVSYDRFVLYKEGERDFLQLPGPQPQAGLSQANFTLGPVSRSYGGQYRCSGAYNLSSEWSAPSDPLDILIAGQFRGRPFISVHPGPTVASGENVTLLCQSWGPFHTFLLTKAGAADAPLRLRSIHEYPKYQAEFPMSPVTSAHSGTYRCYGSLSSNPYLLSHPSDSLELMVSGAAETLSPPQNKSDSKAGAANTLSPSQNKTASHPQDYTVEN
Description: as §1

Biotinylated LILRB1 [2] = target: T3, Biotinylated LILRB1 (UniProt Q8NHL6 24-458, limits assumed, biotinylated (sites not given)); test: epitope binning ELISA, coated 1 ug/ml; competitor 15G8 at 20 ug/ml
Biotinylated LILRB1 [3] = target: T3, Biotinylated LILRB1; test: epitope binning ELISA, coated 1 ug/ml; competitor LK-RB1-9 at 20 ug/ml
Protocol: (§2) Binding epitope of a subset of anti-LILRB1 and anti-LILRB2 antibodies was analyzed by epitope binning ELISA. Briefly, a panel of testing antibodies were coated onto ELISA plate. 50 ul/well Biotinylated LILRB1 or LILRB2 and 50 ul/well of competing antibodies were added to the coated plate and incubated at 37° C. for 1 hour. After Streptavidin-HRP (1:5000) incubation and TMB development, the plates were read at 450 nm using Molecular device spectra max plus384.

Biotinylated LILRB1 [4] = target: T3, Biotinylated LILRB1; test: epitope binning ELISA, coated 1 ug/ml; competitor LK-RB1-12 at 20 ug/ml
Protocol: as §2

Biotinylated LILRB1 [5] = target: T3, Biotinylated LILRB1; test: epitope binning ELISA, coated 1 ug/ml; competitor LK-RB1-16 at 20 ug/ml
Protocol: as §2

Biotinylated LILRB1 [6] = target: T3, Biotinylated LILRB1; test: epitope binning ELISA, coated 1 ug/ml; competitor LK-RB1-31 at 20 ug/ml
Protocol: as §2

Biotinylated LILRB1 [7] = target: T3, Biotinylated LILRB1; test: epitope binning ELISA, coated 1 ug/ml; competitor LK-RB1-33 at 20 ug/ml
Protocol: as §2

Biotinylated LILRB1 [8] = target: T3, Biotinylated LILRB1; test: epitope binning ELISA, coated 1 ug/ml; competitor LK-RB1-47 at 20 ug/ml
Protocol: as §2

Biotinylated LILRB1 [9] = target: T3, Biotinylated LILRB1; test: epitope binning ELISA, coated 1 ug/ml; competitor hz73D1.v1 at 20 ug/ml
Protocol: as §2

human LILRA1 [10] = target: T4, human LILRA1 (human, UniProt O75019 17-461, limits assumed); test: ELISA, OD450, antibody at 200 nM; + = 2-fold over ISO
T4 construct: bought protein coated for ELISA; also called hLILRA1
T4 sequence (O75019 17-461 limits assumed): as above
Protocol: (§3) To further confirm binding affinity, selected clones were assayed in ELISA or FACS in a range of testing concentrations.

human LILRA2 [11] = target: T5, human LILRA2 (human, UniProt Q8N149 24-449); test: as above
T5 construct: bought protein coated for ELISA; also called hLILRA2
T5 sequence (Q8N149 24-449 limits assumed): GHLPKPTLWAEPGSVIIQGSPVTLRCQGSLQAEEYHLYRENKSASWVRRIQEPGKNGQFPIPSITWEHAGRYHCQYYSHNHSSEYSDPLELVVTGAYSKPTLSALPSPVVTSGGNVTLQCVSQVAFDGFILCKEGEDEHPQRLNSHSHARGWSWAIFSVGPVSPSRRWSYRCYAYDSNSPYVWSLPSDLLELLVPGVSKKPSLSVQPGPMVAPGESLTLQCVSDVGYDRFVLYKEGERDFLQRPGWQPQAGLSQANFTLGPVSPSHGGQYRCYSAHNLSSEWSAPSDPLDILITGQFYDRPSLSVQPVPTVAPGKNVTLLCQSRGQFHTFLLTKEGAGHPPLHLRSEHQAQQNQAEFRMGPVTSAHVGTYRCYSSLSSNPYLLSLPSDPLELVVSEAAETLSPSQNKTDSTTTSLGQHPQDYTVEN
Protocol: as §3

human LILRA2 [12] = target: T6, human LILRA2 (human, UniProt Q8N149 24-449); test: as above; remark: listed apart in the source
T6 construct: bought protein coated for ELISA; also called hLILRA2
T6 sequence (Q8N149 24-449 limits assumed): as above
Protocol: as §3

human LILRA1 [13] = target: T7, human LILRA1 (human, UniProt O75019 17-461, limits assumed); test: as above; remark: listed apart in the source
T7 construct: bought protein coated for ELISA; also called hLILRA1
T7 sequence (O75019 17-461 limits assumed): as the sequence (O75019 17-461 limits assumed) above
Protocol: as §3

human LILRA3 [14] = target: T8, human LILRA3 (human, UniProt Q8N6C8 24-439); test: as above
T8 construct: bought protein coated for ELISA; also called hLILRA3
T8 sequence (Q8N6C8 24-439 limits assumed): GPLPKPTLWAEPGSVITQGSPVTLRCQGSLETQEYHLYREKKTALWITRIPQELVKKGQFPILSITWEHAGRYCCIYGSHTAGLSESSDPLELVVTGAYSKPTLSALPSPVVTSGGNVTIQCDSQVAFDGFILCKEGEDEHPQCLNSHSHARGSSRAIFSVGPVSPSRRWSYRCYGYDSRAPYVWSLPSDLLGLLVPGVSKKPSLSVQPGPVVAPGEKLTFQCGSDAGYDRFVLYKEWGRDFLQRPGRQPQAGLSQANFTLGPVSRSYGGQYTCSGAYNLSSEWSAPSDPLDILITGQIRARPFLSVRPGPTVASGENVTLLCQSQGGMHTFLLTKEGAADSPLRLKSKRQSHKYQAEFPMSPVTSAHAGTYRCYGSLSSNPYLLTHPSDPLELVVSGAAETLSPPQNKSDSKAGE
Protocol: as §3

human LILRB1 Variant 2 = target: T9, human LILRB1 Variant 2 (human, UniProt Q8NHL6 24-458, limits assumed); test: ELISA (FIG. 12B)
T9 construct: protein bought from Kactusbio, LLC (Cat: LIL-HM2V1 and LIL-HM2V2 for Variant 2 and 3)

human LILRB1 Variant 3 = target: T10, human LILRB1 Variant 3 (human, UniProt Q8NHL6 24-458, limits assumed); test: ELISA (FIG. 12C)
T10 construct: protein bought from Kactusbio, LLC

human LILRA3 [15] = target: T11, human LILRA3 (human, UniProt Q8N6C8 24-439); test: ELISA, OD450, antibody at 200 nM; + = 2-fold over ISO; remark: listed apart in the source
T11 construct: bought protein coated for ELISA; also called hLILRA3
T11 sequence (Q8N6C8 24-439 limits assumed): as above
Protocol: as §3

human LILRA4 = target: T12, human LILRA4 (human, UniProt P59901 24-446); test: as above
T12 construct: bought protein coated for ELISA; also called hLILRA4
Protocol: as §3

human LILRB3 = target: T13, human LILRB3 (human, UniProt O75022 24-443); test: as above
T13 construct: bought protein coated for ELISA; also called hLILRB3
Protocol: as §3

human LILRB5 = target: T14, human LILRB5 (human, UniProt O75023 24-458); test: as above
T14 construct: bought protein coated for ELISA; also called hLILRB5
Protocol: as §3

human LILRA1 [16] = target: T15, human LILRA1 (human, UniProt O75019 17-461, limits assumed); test: ELISA, antibody at 200 nM, OD450; + = 2-fold over ISO
T15 construct: Bought protein; also called hLILRA1
T15 sequence (O75019 17-461 limits assumed): as the sequence (O75019 17-461 limits assumed) above
Protocol: as §3

human LILRB4 = target: T16, human LILRB4 (human, UniProt Q8NHJ6 22-259); test: as above
T16 construct: Bought protein; also called hLILRB4
Protocol: as §3

T3 sequence (Q8NHL6 24-458 limits assumed): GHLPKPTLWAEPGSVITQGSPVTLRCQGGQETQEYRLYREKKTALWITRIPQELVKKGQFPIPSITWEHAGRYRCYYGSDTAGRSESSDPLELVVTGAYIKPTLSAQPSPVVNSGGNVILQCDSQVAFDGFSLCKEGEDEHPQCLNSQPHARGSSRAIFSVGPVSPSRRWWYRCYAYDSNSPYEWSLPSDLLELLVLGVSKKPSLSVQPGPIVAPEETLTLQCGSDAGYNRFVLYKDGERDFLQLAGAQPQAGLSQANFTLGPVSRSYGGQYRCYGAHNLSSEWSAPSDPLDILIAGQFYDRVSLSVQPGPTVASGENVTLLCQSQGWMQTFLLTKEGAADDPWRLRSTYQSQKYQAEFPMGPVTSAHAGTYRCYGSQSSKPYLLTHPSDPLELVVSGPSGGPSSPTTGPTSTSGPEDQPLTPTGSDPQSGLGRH
T9 sequence (Q8NHL6 other isoform, or with tags, fused parts or gaps mutant limits assumed): as the sequence (Q8NHL6 24-458 limits assumed) above, with L45P, A70T, I119T, S132I counted along it
T10 sequence (Q8NHL6 other isoform, or with tags, fused parts or gaps mutant limits assumed): as the sequence (Q8NHL6 24-458 limits assumed) above, with L45P, I119T, S132I counted along it
T14 sequence (O75023 24-458 limits assumed): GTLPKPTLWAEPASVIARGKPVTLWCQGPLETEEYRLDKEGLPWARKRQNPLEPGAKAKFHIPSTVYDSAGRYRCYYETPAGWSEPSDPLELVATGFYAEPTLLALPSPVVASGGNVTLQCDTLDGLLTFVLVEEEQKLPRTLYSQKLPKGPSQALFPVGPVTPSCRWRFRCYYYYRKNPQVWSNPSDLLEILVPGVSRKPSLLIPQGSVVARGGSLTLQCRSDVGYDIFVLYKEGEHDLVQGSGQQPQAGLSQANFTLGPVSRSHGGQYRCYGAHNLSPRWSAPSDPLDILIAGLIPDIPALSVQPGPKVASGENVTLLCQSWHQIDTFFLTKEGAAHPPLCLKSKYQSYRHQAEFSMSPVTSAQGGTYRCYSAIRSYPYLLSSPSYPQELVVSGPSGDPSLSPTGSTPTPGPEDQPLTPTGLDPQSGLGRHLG
T12 sequence (P59901 24-446 limits assumed): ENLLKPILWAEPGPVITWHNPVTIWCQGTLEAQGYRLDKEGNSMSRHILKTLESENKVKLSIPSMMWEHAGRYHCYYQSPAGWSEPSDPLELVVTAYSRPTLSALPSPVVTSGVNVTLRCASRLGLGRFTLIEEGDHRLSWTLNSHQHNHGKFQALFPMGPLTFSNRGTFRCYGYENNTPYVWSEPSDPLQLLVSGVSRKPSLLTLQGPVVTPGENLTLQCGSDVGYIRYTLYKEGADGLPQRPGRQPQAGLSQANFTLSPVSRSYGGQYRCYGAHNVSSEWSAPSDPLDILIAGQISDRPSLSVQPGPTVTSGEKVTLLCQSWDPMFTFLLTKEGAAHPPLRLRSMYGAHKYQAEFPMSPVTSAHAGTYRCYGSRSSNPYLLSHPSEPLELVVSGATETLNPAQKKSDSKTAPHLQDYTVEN
T1 sequence (Q8NHL6 24-458 limits assumed): as the sequence (Q8NHL6 24-458 limits assumed) above

koff (human LILRB1): 5.18e-05 s⁻¹
koff (human LILRA1 [1]): 7.52e-06 s⁻¹
Inhibition % (Biotinylated LILRB1 [2]): -3.83%
Inhibition % (Biotinylated LILRB1 [3]): 57.4%
Inhibition % (Biotinylated LILRB1 [4]): 82.8%
Inhibition % (Biotinylated LILRB1 [5]): 61.2%
Inhibition % (Biotinylated LILRB1 [6]): 41.6%
Inhibition % (Biotinylated LILRB1 [7]): 23.5%
Inhibition % (Biotinylated LILRB1 [8]): 46.9%
Inhibition % (Biotinylated LILRB1 [9]): 31.4%
B1: hz73D1.v1 (antibody, human IgG4 S228P, kappa, V domains shown)
VH: QVQLVQSGAEVKKPGASVKVSCKASGYTFTDYYINWVRQAPGQGLEWMGNVNPNDGGTTYNQKFKGRVTMTTDTSTSTAYMELRSLRSDDTAVYYCARREIYFYGTIYYYAMDYWGQGTLVTVSS
VL: DIQLTQSPSFLSASVGDRVTITCRASESVDYYGNSFMYWYQQKPGKAPKLLIYFASNLESGVPSRFSGSGSGTEFTLTISSLQPEDFATYYCQQNNEDPWTFGGGTKVEIKR

binding result (human LILRA1 [10]): binds
binding result (human LILRA2 [11]): binds
B2: LK-RB1-59 (antibody, human IgG4 S228P, kappa, V domains shown)
VH: QIQLVQSGPELKKPGETVKISCKASGYTFTTYGMSWVKQAPGKGLKWMGWINTYSGVPTYADDFKGRFAFSLETSASTAYLQINNLKNEDTATYFCARRRIYYGNKGYAMDYWGQGTSVTVSS
VL: DIQMTQSPASLSVSVGETVTITCRASENIYSNLVWYQQKQGKSPQLLVYTATNLADGVPSRFSGSGSGTQFSLKINSLQSEDFGSYYCQHFWGTPWTFGGGTKLEIKR
notes: anti-LILRB1 clone from mouse hybridoma

binding result (human LILRA2 [12]): binds
B3: LK-RB1-13 (antibody, human IgG4 S228P, kappa, V domains shown)
VH: QVTLKESGPGIVKPSQTLSLTCSFSGFSLSISGTGIGWIRQPSGKGLEWLAHIWWDDDKYYNPSLKSQVTISKDTSTKQVFLNITSVDTADTATYYCTRTELGRGDFWGQGTSVTVSS
VL: DILLTQSPAILSVSPGDRVSFSCRASQSTGTNIHWYQRRTNGSPRLLIKYGSESISGIPSRFSGSGTGTDFTLTINSVESEDIADYYCQQSYSWPYTFGGGTKLEIKR
notes: anti-LILRB1 antibody

binding result (human LILRA1 [13]): binds
binding result (human LILRA3 [14]): binds
B4: LK-RB1-15 (antibody, human IgG4 S228P, kappa, V domains shown)
VH: QVTLKESGPGIVKPSQTLSLTCSFSGFSLSISGTGIGWIRQPSGKGLEWLAHIWWDDDKYYNPSLKSQVTISKDTSTKQVFLNITSVDTADTATYYCTRTELGRGDFWGQGTSVTVSS
VL: DILLTQSPAILSVSPGDRVSFSCRASQSIGTNIHWYQRRTNGSPRLLIKYGSESISGIPSRFSGSGTGTDFTLTINSVESEDIADYYCQQSYSWPYTFGGGTKLEIKR
notes: anti-LILRB1 antibody

binding result (human LILRB1 Variant 2): binds
binding result (human LILRB1 Variant 3): binds
B5: LK-RB1-9.h1 (antibody, human IgG4, kappa, V domains shown)
VH: QVQLVQSGSELKKPGASVKVSCKASGYTFTTYGMSWVRQAPGQGLEWMGWINTYSGVPTYADDFKGRFVFSLDTSVSTAYLQISSLKAEDTAVYYCARRRRTYHGYLSFDYWGQGTTVTVSS
VL: DIQMTQSPSSLSASVGDRVTITCETSENIYGALNWYQQKPGKAPKLLIYGATNLAEGVPSRFSGSGSGTDFTFTISSLQPEDIATYYCQNVLNTPWTFGGGTKLEIKR
notes: humanized LK-RB1-9

binding result (human LILRA3 [15]): binds
B6: LK-RB1-45 (antibody, human IgG4 S228P, kappa, V domains shown)
VH: QVQLQQSGTELARPGASVKLSCKASGYTFTNFWMHWIKQRPGQGLEWIGYVNPTSDYTKYNQKFKDKATLTADKSSSTAYMQLNSLTYEDSAVYYCTRSSLYDTNYVFDSWGQGTTLTVSS
VL: DILLTQSPAILSVSPGERVSFSCRASQSIGRSIHWYQQRTNGSPRLLIKYASESISGIPSRFSGGGSGTDFTLSISNVESEDIADYYCQQSNNWPFTFGSGTKLEIKR
notes: as for B2

binding result (human LILRB1 Variant 2): binds
binding result (human LILRB1 Variant 3): binds
B7: LK-RB1-16.h3 (antibody, human IgG4, kappa, V domains shown)
VH: QVQLQESGPGLVKPSETLSLTCTVSGFSLISNAISWIRQPPGKGLEWLGVIWGDGNTIYHSALRSRLTISKDTSKNQVFLKLSSVTAADTAVYYCAKANWDGYYFDYWGQGTTVTVSS
VL: DIQMTQSPSTLSASVGDRVTITCHASQSVDFWLNWYQQKPGKAPKLLISKASNLHTGVPSRFSGSGSGTEFTLTISSLQPDDFATYYCQQGQSYPLTFGQGTKLEIKR
notes: humanized LK-RB1-16

binding result (human LILRA4): binds
B8: LK-RB1-2 (antibody, human IgG4 S228P, kappa, V domains shown)
VH: QIQLVQSGPELKKPGETVKISCKASGYTFTTYGVSWVKQAPGKGLKWMGWINTYSGVSTYSDDFKGRFAFSLETSASTAYLQIINLKNEDAATYFCSRRRRTYDGYLSFDYWGQGTTLTVSS
VL: DIQMTQSPGSLSASVGETVTITCGASENIYGALNWFQRKPGKSPQLLIYGATNLADGMSSRFSGSGSGRQYSLQISSLRPDDVATYYCQNVLTTPWTFGGGTKVEIKR
notes: anti-LILRB1 antibody

binding result (human LILRA1 [13]): binds
binding result (human LILRA3 [14]): binds
B9: LK-RB1-11 (antibody, human IgG4 S228P, kappa, V domains shown)
VH: QVTLKESGPGILQPSQTLSLTCSFSGFSLKTSGMSVGWIRQPSGKGLEWLAHIWWNDDKYYNPVLKGRLTISKDTSNNLVFLKIASVVSTDTATYYCVRYGNSHGYWYFDVWGTGTTVTVSS
VL: NIVLTQSPASLAVSLGQRATISCRASESVDSYGNNFIHWYQQKPGQPPKVLIYYASNLEAGVPARFSGSGSRTDFTLTIDPVEAEDAATYYCQQNNEDPYTFGGGTKLEIER
notes: anti-LILRB1 antibody

binding result (human LILRA1 [10]): binds
binding result (human LILRA2 [11]): binds
B10: LK-RB1-47 (antibody, human IgG4 S228P, kappa, V domains shown)
VH: QIQLVQSGPELKKPGETVKISCKASGYTFTTYGMSWVKQAPGKGLKWMGWINTYSGVPTYTDDFKGRFAFSVETSASTAYLQINNLKNEDTATYFCARRERDFYGNIFFPYWGQGSLVTVSA
VL: DIQMTQTTSSLSASLGDRVTISCRASQDISNYLNWYQQKPDGTVKLLIYYTSRIHSGVPSRFSGSGSGTDFSLTISNLDQEDIATYFCQQGHTLPWTFGGGTKVEIKR
notes: as for B2

binding result (human LILRB3): binds
binding result (human LILRB5): binds
B11: LK-RB1-35 (antibody, human IgG4 S228P, kappa, V domains shown)
VH: DVQLQESGPGLEKPSQSLSLTCSVTGYSITRGYQWNWIRQFPGNKLEWMGYISYDGSNNYNPSLKNRISITRDASKNQFFLKLNSVTTEDTATYYCARRSYNSIDYWGQGTTLTVSS
VL: DIVLTQSPATLSVTPGDSVSLSCRASQSISSNLHWYQQKSHESPRLLIKYASQSISGIPSRFSGSGSGTDFTLSINSVETEDFGMYFCQQSNSWPLTFGAGTKLELKR
notes: as for B2

binding result (human LILRB3): binds
binding result (human LILRB5): binds
B12: LK-RB1-36 (antibody, human IgG4 S228P, kappa, V domains shown)
VH: DVQLQESGPGLEKPSQSLSLTCSVTGYSITRGYQWNWIRQFPGNKLEWMGYISYDGSNNYNPSLKNRISIIRDTSKNQFFLKLNSVTTEDTATYYCARRSYNSIDYWGQGTTLTVSS
VL: DIVLTQSPATLSVTPGDSVSLSCRASQSISNNLHWYQQKSHESPRLLIKYASQSISGIPSRFSGSGSGTDFTLSINSVETEDFGMYFCQQSNSWPLTFGAGTKLELKR
notes: as for B2

binding result (human LILRA1 [16]): binds
binding result (human LILRB4): binds
B13: LK-RB2-12 (antibody, human IgG4 S228P, kappa, V domains shown)
VH: QIQLVQSGPELKKPGETVKISCKASGYTFTTYGMSWVKQTPGKGLKWMGWINIYSGVPTYADDFKGRFVFSLEISASTAHLQINNLKNEDTATYFCARRKDYSGHCFDYWGQGTTLTVSS
VL: DIVLTQSPASLAVSPGQRATISCRASESVDTYGISFMHWYQQKPGQPPKLLIYRASNLESGIPARFSGSGSRTDFTLTINPVETDDVAIYYCQQSKKDPYTFGGGTKLEIKR

binding result (human LILRA1 [16]): binds
binding result (human LILRB4): binds
B14: LK-RB2-15 (antibody, human IgG4 S228P, kappa, V domains shown)
VH: QIQLVQSGPELKKPGETVKISCKASGYTFTTYGMSWVKQAPGKGLKWMGWINVYSGVPTYADDFKGRFAFSLEISASTAYLQINNLKDEDTATYFCARRKDYSGHCFDYWGQGTTLTVSS
VL: DIVLTQSPASLAVSLGQRATFSCRASESVDTYGISFMHWYQQKPGQPPKLLIYRASNLESGIPARFSGSGSRTDFTLTINPVETDDVATYYCQQSKKEPYTFGGGTKLEIKR
